Earlier results as cited in article PMC5567442.

Target: Kv1.3 (UniProt P22001)
Chain of UniProt P22001 (P22001 whole entry): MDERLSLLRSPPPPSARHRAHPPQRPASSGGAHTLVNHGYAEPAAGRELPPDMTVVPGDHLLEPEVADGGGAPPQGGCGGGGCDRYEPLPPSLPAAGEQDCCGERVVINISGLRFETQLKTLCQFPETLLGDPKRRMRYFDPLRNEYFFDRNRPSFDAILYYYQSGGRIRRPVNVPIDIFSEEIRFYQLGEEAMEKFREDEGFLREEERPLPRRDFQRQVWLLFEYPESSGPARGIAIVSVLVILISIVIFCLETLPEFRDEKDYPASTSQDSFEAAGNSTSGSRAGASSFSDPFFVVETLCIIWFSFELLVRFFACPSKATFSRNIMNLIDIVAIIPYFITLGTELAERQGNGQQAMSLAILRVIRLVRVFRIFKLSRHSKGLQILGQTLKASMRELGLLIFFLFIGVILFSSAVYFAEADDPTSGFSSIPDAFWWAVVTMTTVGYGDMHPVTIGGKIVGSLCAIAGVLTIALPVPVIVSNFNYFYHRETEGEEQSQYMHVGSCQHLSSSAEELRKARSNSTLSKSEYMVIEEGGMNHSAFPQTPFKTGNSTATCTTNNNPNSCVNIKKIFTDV

## Agitoxin-2 (from UniProt P46111)
  Kd: 0.177 nM
